Results: patent publication US20170121318, “USE OF SMALL MOLECULE INHIBITORS TO KLF10 FOR MODULATION OF T REGULATORY CELLS AND CANCER IMMUNOTHERAPY” (THE BRIGHAM AND WOMEN'S HOSPITAL, INC., published 2017)

Biological target: KLF10 (TIEG1) (UniProt Q13118 Q13118:1-480)
Assay: EMSA; 100 ng protein, 5 fmol probe, 5 mM MgCl2, poly(dI-dC), 0.05% NP-40, room temperature; binding inhibited by compounds #48, #48-15, #15-09
Conditions: tags: GST fusion (GST-KLF10); Novus Biologicals; label: 3' biotin
Experimental: The identified small molecule compounds were next examined for effects on KLF10 DNA-protein binding.
KLF10 recombinant protein was obtained from Novus Biologicals. […] End-labeled oligos (1 μmol/L) were annealed in a buffer system with 10 mM Tris, 50 mM NaCl, pH 8.0 by heating at 95° C. for 5 min, then slowly cooled to 65° C. for 30 min incubation, and cooled to room temperature. […] Compounds were incubated with KLF10 in a reaction system for 4 hrs at room temperature, and then Biotin-labeled probes were added for a 1 hr incubation.

KLF10 (TIEG1), sequence (Q13118 whole entry, one chain of several): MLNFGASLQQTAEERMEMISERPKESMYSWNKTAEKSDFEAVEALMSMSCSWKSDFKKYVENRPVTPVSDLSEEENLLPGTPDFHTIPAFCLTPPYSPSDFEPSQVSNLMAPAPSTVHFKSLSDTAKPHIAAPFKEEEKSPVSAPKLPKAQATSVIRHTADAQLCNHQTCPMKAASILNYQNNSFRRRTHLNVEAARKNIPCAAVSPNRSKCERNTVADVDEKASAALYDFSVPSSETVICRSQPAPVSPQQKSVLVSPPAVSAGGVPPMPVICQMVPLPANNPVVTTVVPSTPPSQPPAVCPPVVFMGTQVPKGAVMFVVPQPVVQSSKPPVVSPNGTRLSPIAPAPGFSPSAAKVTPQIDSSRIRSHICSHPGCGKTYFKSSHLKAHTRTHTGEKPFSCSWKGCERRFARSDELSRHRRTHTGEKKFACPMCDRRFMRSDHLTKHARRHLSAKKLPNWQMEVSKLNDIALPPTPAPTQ

B1: KLF10 consensus DNA-binding sequence (dsDNA)
DNA 1: GCAGTGAAAAGGGGGTGTGTCAGGATGC
DNA 2: GCATCCTGACACACCCCCTTTTCACTGC
binding result: binds
